Source: US20250333517A1 (ROCK BIOMEDICAL, published 2025)

T1: CD20 (UniProt P11836 1-297, limits assumed)
T1 construct: also called the antigen (of Rituximab and Obinutuzumab)
T1 sequence (looked up): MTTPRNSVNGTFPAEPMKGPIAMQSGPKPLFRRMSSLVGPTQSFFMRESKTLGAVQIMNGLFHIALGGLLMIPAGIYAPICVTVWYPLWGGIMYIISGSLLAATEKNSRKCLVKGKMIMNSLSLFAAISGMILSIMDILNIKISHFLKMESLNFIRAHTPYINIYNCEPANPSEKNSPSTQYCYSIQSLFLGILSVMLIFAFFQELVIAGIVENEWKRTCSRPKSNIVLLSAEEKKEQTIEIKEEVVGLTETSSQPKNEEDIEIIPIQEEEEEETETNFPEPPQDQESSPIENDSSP

B1: Rituximab population of the present disclosure (Biobetter), produced by SAII A3 Fut8 KO cells (antibody, human IgG1, kappa)
heavy: not shown
light: QIVLSQSPAILSASPGEKVTMTCRASSSVSYIHWFQQKPGSSPKPWIYATSNLASGVPVRFSGSGSGTSYSLTISRVEAEDAATYYCQQWTSNPPTFGGGTKLEIKRTVAAPSVFIFPPSDEQLKSGTASVVCLLNNFYPREAKVQWKVDNALQSGNSQESVTEQDSKDSTYSLSSTLTLSKADYEKHKVYACEVTHQGLSSPVTKSFNRGEC
modifications: N-glycan on the heavy chain: around 83.4% SCT glycans, no core fucose
notes: also called glycoengineered MabThera protein population
B2: Bevacizumab population of the present disclosure (Biobetter), produced by SAII A3 cells (antibody, V domains shown)
VH: EVQLVESGGGLVQPGGSLRLSCAASGYTFTNYGMNWVRQAPGKGLEWVGWINTYTGEPTYAADFKRRFTFSLDTSKSTAYLQMNSLRAEDTAVYYCAKYPHYYGSSHWYFDVWGQGTLVTVSS
VL: DIQMTQSPSSLSASVGDRVTITCSASQDISNYLNWYQQKPGKAPKVLIYFTSSLHSGVPSRFSGSGSGTDFTLTISSLQPEDFATYYCQQYSTVPWTFGQGTKVEIKR
modifications: N-glycan on the heavy chain: around 82.6% SCT glycans, mostly with core fucose
notes: also called glycoengineered Avastin protein population

How the values were obtained:
[1] = target: T1, CD20; experiment: ELISA, target binding (FIG. 57)
[2] = target: FcγRIIIA on the effector cells of the ADCC reporter assay (UniProt P08637 17-254, limits assumed); experiment: cell-based or functional assay
Chain of FcγRIIIA on the effector cells of the ADCC reporter assay (P08637 17-254 limits assumed): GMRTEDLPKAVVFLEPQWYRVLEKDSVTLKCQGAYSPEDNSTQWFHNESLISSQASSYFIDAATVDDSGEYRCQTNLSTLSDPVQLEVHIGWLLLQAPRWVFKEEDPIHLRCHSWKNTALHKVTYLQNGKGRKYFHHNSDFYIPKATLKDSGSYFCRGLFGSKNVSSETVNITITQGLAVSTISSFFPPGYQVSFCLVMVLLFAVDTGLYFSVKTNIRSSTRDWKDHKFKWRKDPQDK

[3] = target: T2, Vascular Endothelial Growth Factor (VEGF-A) (UniProt P15692-4 27-191, limits assumed); experiment: ELISA, target binding (FIG. 60)
T2 construct: also called the antigen (of Bevacizumab)
T2 sequence (P15692 other isoform, or with tags, fused parts or gaps limits assumed): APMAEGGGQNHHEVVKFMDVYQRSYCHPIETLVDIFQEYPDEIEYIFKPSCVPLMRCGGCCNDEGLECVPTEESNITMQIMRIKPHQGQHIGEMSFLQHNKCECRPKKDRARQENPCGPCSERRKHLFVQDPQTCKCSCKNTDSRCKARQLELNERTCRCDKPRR

Binder | EC50 [1] [nM] | ADCC EC50 (M), ADCC Reporter Bioassay [2] [M] | EC50 [3] [nM]
B1 | 0.77 | 1.76e-10 | –
B2 | – | – | 0.377
